The values below are quoted from earlier work in paper PMC10349181.

For this series, the target named is Amyloid beta (Homo sapiens) (UniProt P05067).
Sequence of Amyloid beta (Homo sapiens) (P05067 672-711): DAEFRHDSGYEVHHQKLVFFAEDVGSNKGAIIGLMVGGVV

Sequence of VEGF-A (P15692 whole entry): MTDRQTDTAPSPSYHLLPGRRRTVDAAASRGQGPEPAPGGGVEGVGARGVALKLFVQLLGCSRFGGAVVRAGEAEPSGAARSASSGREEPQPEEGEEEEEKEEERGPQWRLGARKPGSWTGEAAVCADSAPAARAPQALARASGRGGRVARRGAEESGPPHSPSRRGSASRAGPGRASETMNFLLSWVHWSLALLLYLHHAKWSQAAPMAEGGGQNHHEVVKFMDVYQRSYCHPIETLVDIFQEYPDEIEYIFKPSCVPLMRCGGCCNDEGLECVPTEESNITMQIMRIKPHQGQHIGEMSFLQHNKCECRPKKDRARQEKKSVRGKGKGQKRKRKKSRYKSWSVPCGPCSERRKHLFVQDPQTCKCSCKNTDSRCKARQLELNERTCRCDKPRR

Regarding VEGF-A (from UniProt P15692), the Kd (usually the concentration at which binding is half-saturated) is 0.05 nM.
